The results in this text go back to patent US9187735B2, “Metal abstraction peptide with superoxide dismutase activity” (University of Kansas, priority 2012, dated 2015).

A short description of series [1]: Cyclic voltammetry, midpoint potential. Format: physicochemical. As to conditions: pH 10, measured immediately after generation. On the procedure: Electrochemical data were collected. A 3 mL sample of 3 mM Ni-NCC was prepared in 50 mM sodium borate at pH 10. CV data were collected with a CH1812C Electrochemical Analyzer potentiostat (CH Instruments) with a three-electrode setup (platinum working electrode, Bioanalytical Systems, Inc.; Pt auxiliary electrode; Ag/AgCl reference electrode) in a glass CV cell. Potential was applied from zero to 1.2 V with a scan rate of 0.2 V per second, and current was measured. The same experiment was attempted on a 3 mM Ni-NCC sample in 50 mM potassium phosphate at the same pH. The sample was incubated for 24 hours and analyzed again.
Electrochemical data were collected as previously described. 3-mL samples of 3 mM Ni-GGNCC (SEQ ID NO. 1) and Ni-GGGCC (SEQ ID NO. 3) were prepared in 50 mM potassium phosphate at pH 7.4. After incorporation, pH was raised to 10 to observe more intense signal. Cyclic voltammetry (CV) data were collected with a CH1812C Electrochemical Analyzer potentiostat (CH Instruments) with a three-electrode setup (platinum working electrode, Bioanalytical Systems, Inc.; Pt auxiliary electrode; Ag/AgCl reference electrode) in a glass CV cell. Potential was applied from zero to 1.2 V with a scan rate of 0.2 V per second, and current was measured.

The nature of series [2]: Ni-SOD xanthine/xanthine oxidase coupled assay (superoxide scavenging). As to conditions: cytochrome c, absorbance at 550 nm, reaction buffer pH 7.8. Format: biochemical. The method, then: Ni-SOD activity was determined, except Ni-NCC was generated in situ using one equivalent NiSO4. Ni-NCC was aged for 0-120 minutes, and the Ni-SOD activity was determined using the standard xanthine/xanthine oxidase method developed by Crappo and coworkers. All reagents were generated in 50 mM potassium phosphate, 100 μM EDTA reaction buffer at pH 7.8 except for Ni-NCC, which was generated in 50 mM potassium phosphate, pH 7.4. 600 μM cytochrome c from bovine heart (Sigma), 300 μM xanthine (Sigma) and enough xanthine oxidase from buttermilk (Sigma) to cause a change in absorbance at […] of 0.02-0.04 AU per minute were added to a final volume of 300 μL with reaction buffer. The change in absorbance at 550 nm was monitored on a Cary 100 UV-Visible spectrophotometer (Varian). The assay was performed with 100 μM Ni-NCC.
Superoxide scavenging activity was determined as reported previously, except Ni-peptides were generated in situ using one equivalent of NiSO4. Superoxide scavenging activity of Ni-GGGCC (SEQ ID NO. 3), Ni-GGNCC (SEQ ID NO. 1), Ni-GNNCC (SEQ ID NO. 4), and Ni-GNGCC (SEQ ID NO. 5) was determined using the standard xanthine/xanthine oxidase method developed by Crapo and coworkers. […] The change in absorbance at 550 nm was monitored on a Cary 100 UV-Visible spectrophotometer (Varian).

Series [3] in a line: Photopolymerization of hydroxy ethyl methacrylic acid (HEMA), rate by FTIR. The following applies: light 550 mW cm-2 for 40 seconds. On the procedure:
Photopolymerization of hydroxy ethyl methacrylic acid (HEMA) was initiated using a visible light-curing unit (Spectrum® 800, Dentsply, Milford, Del., USA) at an intensity of 550 mW cm-2 for 40 seconds. The subsequent rate of polymerization was measured via FTIR and is reported as a normalized ratio of peak intensities from unreacted and reacted monomer (1455 cm^−1 and 1673 cm^−1). The rate of polymerization was altered by the addition of Ni-NCC and Ni-GGNCC (SEQ ID NO. 1). See FIG. 31, illustrating the percentage of polymer remaining over time.

No end group written: not given here.

For “Ni-GGGCC: nickel complex of pentapeptide GGGCC (SEQ ID NO. 3) (cysteine pairing not given here; also: nickel complex)”, the midpoint potential in series [1] amounted to 0.78 V vs Ag/AgCl.
“XXLLL-GGNCC (not fully specified (N-terminus); cysteine pairing not given here; also: metallated with nickel) [Ni-GGNCC]” displayed an IC50 in series [2] of 9.1 µM. Besides, in series [3], the “effect on rate of polymerization” value is listed as “slowed the rate of polymerization”. Further, the midpoint potential in series [1] came out at 0.8 V vs Ag/AgCl.
